From patent US20230045418A1 (AJOU UNIVERSITY INDUSTRY ACADEMIC COOPERATION FOUNDATION, published 2023) come the findings set out here.

Positions count from the first letter of the chain named.

The target in assay [1] is T1, cell-surface HPVE11-19/HLA-A*02:01 complex (HPV16; human).
T1 construct: whole, on cells
In words: flow cytometry, MDA-MB-231 pulsed with HPVE11-19 peptide, Alexa647 anti-mouse Fc.

The target of assay [2] is T2, cell-surface CMVP495-503/HLA-A*02:01 complex (human cytomegalovirus (CMV); human).
T2 construct: whole, on cells; also called CMV pp65 peptide complex
In words: flow cytometry, MDA-MB-231 pulsed with 4 µM CMVP495-503 peptide, Alexa647 anti-mouse Fc.
Experimental: After completion of pulsing, the cells were washed with a FACS buffer and then centrifuged at 1300 rpm for 3 minutes to remove the supernatant. […] After washing each sample with 1 ml of a FACS buffer, a F(ab′)2 antibody that specifically recognizes Alexa647 (red fluorescence)-conjugated mouse Fc was diluted 1:600 in 100 μl of a FACS buffer, followed by reaction at 4° C. for 30 minutes.

For assay [3], the target named is T2, cell-surface CMVP495-503/HLA-A*02:01 …. Kind of assay: flow cytometry, 500 nM antibody on MDA-MB-231 cells pulsed with 50 µM peptide.
For assay [4] the target is unchanged. Kind of assay: flow cytometry, cells pulsed with 50 µM CMVP495-503 peptide, Alexa647 anti-mouse Fc.
Experimental: After washing each sample with 1 ml of a FACS buffer, a F(ab′)2 antibody (Jackson ImmunoResearch, USA) that specifically recognizes Alexa647 (red fluorescence)-conjugated mouse Fc (Jackson ImmunoResearch, USA) was diluted 1:600 in 100 μl of a FACS buffer, followed by reaction at 4° C. for 30 minutes.
After completion of pulsing, the cells were washed with a FACS buffer and centrifuged at 1300 rpm for 3 minutes to remove the supernatant. […] After washing each sample with 1 ml of a FACS buffer, a F(ab′)2 antibody that specifically recognizes Alexa647 (red fluorescence)-conjugated mouse Fc was diluted 1:600 in 100 μl of a FACS buffer, followed by reaction at 4° C. for 30 minutes.

B1: TCR-like antibody H9 #1 (IgG form, mouse IgG2a / mouse kappa) (antibody, V domains shown)
VH: EVQLVQSGAEVKKPGSSVKVSCKASGGTFSSYAISWVRQAPGQGLEWMGGIIPIFGTANYAQKFQGRVTITADESTSTAYMELSSLRSEDTAVYYCARGDLYYYDSSGYPLWYMDYWGQGTLVTVSS
VL: ETTLTQSPGTLSLSPGERATLSCRASQSVSSSYLAWYQQKPGQAPRLVIYGASSRATGIPDRFSGSGSGTDFTLTISRLEPEDFAVYYCQDYSTYPAFTFGQGTKLEIR
notes: also called #1 clone in IgG form
In the case of B1, the binding result in assay [1] is given as “no binding (tested: 50 nM)”; in assay [2], “binds”.

B2: TCR-like antibody H9 (chimeric full-length IgG, mouse IgG2a / mouse kappa) (antibody, V domains shown)
VH: B1 VH with L111R, W112Y, M114F
VL: B1 VL with D91H, Y95S, A97G
notes: also called H9 clone; H9 antibody
For the molecule B2, the binding result in assay [3] is recorded as “binds”; in assay [1] it was “no binding (tested: 50 nM)”.

B3: TCR-like antibody H9 #38 (IgG form, mouse IgG2a / mouse kappa) (antibody, V domains shown)
VH: B1 VH with L111W, W112Y
VL: B1 VL with D91H, Y92S, S93Y, T94A, Y95F, A97G
notes: also called #38 clone in IgG form
Consider B3, for which, in assay [4], the binding result is reported as “binds”.

B4: TCR-like antibody H9 #1-30 (IgG form, mouse IgG2a / mouse kappa) (antibody, V domains shown)
VH: B1 VH with G50S, T57A, N59E
VL: B1 VL with A56P, T57R
Consider B4, for which, in assay [1], the binding result was “no binding (tested: 50 nM)”.

B5: TCR-like antibody H9 #1-17 (IgG form, mouse IgG2a / mouse kappa) (antibody, V domains shown)
VH: B1 VH with G50S, T57V, N59E, Q62H
VL: B1 VL with S54T, A56P
Take B5: the binding result in assay [1] is reported as “no binding (tested: 50 nM)”; in assay [2], “binds”.
